Data published in patent US20250269047A1 (MABWELL SHANGHAI BIOSCIENCE, published 2025).
Substitutions are numbered along the chain they refer to. Blank lines part the entries; values can stand above or below the binder they belong to.

Molecular target: T1, recombinant human B7-H3-his extracellular domain protein (UniProtKB-Q5ZPR3, 1 aa-461 aa) (human, UniProt Q5ZPR3 29-461)
T1 construct: range 1-461; The printed range 1-461 starts at residue 1 and so includes the signal peptide; also called Human B7-H3 ECD; recombinant human B7-H3-his protein; not shown: C-terminal his tag
T1 sequence (looked up): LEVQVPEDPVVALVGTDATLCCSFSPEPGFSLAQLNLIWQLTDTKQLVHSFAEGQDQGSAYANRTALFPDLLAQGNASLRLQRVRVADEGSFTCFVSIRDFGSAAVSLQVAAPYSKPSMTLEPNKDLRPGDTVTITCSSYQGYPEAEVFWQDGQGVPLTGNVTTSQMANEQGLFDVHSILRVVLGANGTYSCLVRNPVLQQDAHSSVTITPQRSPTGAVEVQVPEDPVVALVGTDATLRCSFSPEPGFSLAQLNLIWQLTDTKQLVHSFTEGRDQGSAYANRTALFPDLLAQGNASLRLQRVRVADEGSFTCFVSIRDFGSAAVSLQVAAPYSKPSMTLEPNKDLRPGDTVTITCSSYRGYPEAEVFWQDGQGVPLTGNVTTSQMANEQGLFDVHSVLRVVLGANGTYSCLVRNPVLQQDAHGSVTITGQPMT
Test: BLI (Octet QKe), antibody on AHC biosensor, B7-H3-his 60 nM in solution
Description: According to the mutation designs, site-directed mutagenesis was performed in the plasmids expressing the humanized light chains and heavy chains respectively using StarMut gene Site-directed Mutagenesis Kit (Cat.: T111-01, GenStar). The mutated plasmids were transformed into E. coli cells for expansion, and plasmids expressing the humanized and mutated light and heavy chains based on the antibodies 9B11, 10B4, and 17A3 were obtained. […] 5-6 days after cell transfection, culture supernatants were purified through ProA affinity chromatography column to obtain different humanized antibodies. Affinities of the antibodies were determined by an assay including capturing Fc fragments of the antibodies with anti-human IgG Fc capture (AHC) biosensors using Octet QKe system instrument from Fortebio. For the assay, each of the humanized antibodies and the chimeric antibodies based on the antibodies 9B11, 10B4, and 17A3 was diluted to 4 μg/ml in PBS, and was allowed to flow through the surface of an AHC biosensor (Cat.: 18-0015, PALL) for 300 s. Recombinant human B7-H3-his protein (Accession No.: UniProtKB-Q5ZPR3, 1 aa-461 aa) was used as a mobile phase, and its concentration was 60 nM. The association time was 100 s and the dissociation time was 300 s. When the assay was finished, data from which the response values of blank control had been deducted were fitted to a 1:1 Langmuir binding model using software, and then kinetic constants for antigen-antibody binding were calculated. The light and heavy chain combinations and the affinity constant KD values of the humanized and the mutant antibodies based on the antibodies 9B11, 10B4, and 17A3 are shown in Tables 6-8 respectively.

B1: hz9B11-1 (antibody, human IgG1, kappa)
heavy: not shown
light: EIVLTQSPGTLSLSPGERATLSCRASQSINNNLHWYQQKPGQAPRLLIYYASQSISGIPDRFSGSGSGTDFTLTISRLEPEDFAVYYCQQSHSWPYTFGQGTKLEIKRTVAAPSVFIFPPSDEQLKSGTASVVCLLNNFYPREAKVQWKVDNALQSGNSQESVTEQDSKDSTYSLSSTLTLSKADYEKHKVYACEVTHQGLSSPVTKSFNRGEC
notes: hz9B11_VH1 + hz9B11_VL1; human IgG1, kappa
Kd: 4520 pM

B2: hz9B11-7 (antibody, human IgG1, kappa)
heavy: not shown
light: B1 light with Y87F
notes: hz9B11_VH1 + hz9B11_VL4; human IgG1, kappa
Kd: 3070 pM

B4: hz9B11-2 (antibody, human IgG1, kappa)
heavy: not shown
light: B1 light
notes: hz9B11_VH2 + hz9B11_VL1; human IgG1, kappa
Kd: 6280 pM

B7: hz9B11-8 (antibody, human IgG1, kappa)
heavy: not shown
light: B1 light with Y87F
notes: hz9B11_VH2 + hz9B11_VL4; human IgG1, kappa
Kd: 4510 pM

B8: hz17A3-5 (antibody, human IgG1, kappa, V domains shown)
VH: EVQLVQSGAEVKKPGASVKVSCKASGYTFTDYALHWVRQAPGQGLEWMGLINTYSSNTNYNQKFKDRVTMTRDTSISTAYMELSRLRSEDTAVYYCARGITAVVGTRYYAMDYWGQGTLVTVSS
VL: EIVLTQSPGTLSLSPGERATLSCRASQSISNNLHWYQQKPGQAPRLLIKYTSQNISGIPDRFSGSGSGTDFTLTISRLEPEDFAVYYCQQSYSWPLTFGGGTKVEIKR
notes: hz17A3_VH3 + hz17A3_VL3; human IgG1, kappa
Kd: 258 pM

B9: hz17A3-1 (antibody, human IgG1, kappa, V domains shown)
VH: B8 VH with E1Q, E89D
VL: B8 VL with K49Y
notes: hz17A3_VH1 + hz17A3_VL1; human IgG1, kappa
Kd: 541 pM

B11: hz17A3-13 (antibody, human IgG1, kappa, V domains shown)
VH: B8 VH with N57S
VL: B8 VL with N31S
notes: hz17A3_VH5 + hz17A3_VL5; human IgG1, kappa
Kd: 699 pM

B12: hz17A3-12 (antibody, human IgG1, kappa, V domains shown)
VH: B8 VH with N52S
VL: B8 VL with N31S
notes: hz17A3_VH4 + hz17A3_VL5; human IgG1, kappa
Kd: 573 pM

B13: hz17A3-8 (antibody, human IgG1, kappa, V domains shown)
VH: B8 VH
VL: B8 VL with K49Y, Y87F
notes: hz17A3_VH3 + hz17A3_VL4; human IgG1, kappa
Kd: 462 pM

B14: hz17A3-7 (antibody, human IgG1, kappa, V domains shown)
VH: B8 VH with N57S
VL: B8 VL
notes: hz17A3_VH5 + hz17A3_VL3; human IgG1, kappa
Kd: 422 pM

B15: hz17A3-6 (antibody, human IgG1, kappa, V domains shown)
VH: B8 VH with N52S
VL: B8 VL
notes: hz17A3_VH4 + hz17A3_VL3; human IgG1, kappa
Kd: 401 pM

B17: hz17A3-15 (antibody, human IgG1, kappa, V domains shown)
VH: B8 VH with N52S
VL: B8 VL with N54S
notes: hz17A3_VH4 + hz17A3_VL6; human IgG1, kappa
Kd: 371 pM

B18: hz17A3-2 (antibody, human IgG1, kappa, V domains shown)
VH: B8 VH with E1Q, M48I, E89D
VL: B8 VL with K49Y
notes: hz17A3_VH2 + hz17A3_VL1; human IgG1, kappa
Kd: 771 pM

B19: hz17A3-10 (antibody, human IgG1, kappa, V domains shown)
VH: B8 VH with N57S
VL: B8 VL with K49Y, Y87F
notes: hz17A3_VH5 + hz17A3_VL4; human IgG1, kappa
Kd: 401 pM

B21: hz17A3-9 (antibody, human IgG1, kappa, V domains shown)
VH: B8 VH with N52S
VL: B8 VL with K49Y, Y87F
notes: hz17A3_VH4 + hz17A3_VL4; human IgG1, kappa
Kd: 431 pM

B22: hz17A3-19 (antibody, human IgG1, kappa, V domains shown)
VH: B8 VH with N57S
VL: B8 VL with N31S, N54S
notes: hz17A3_VH5 + hz17A3_VL7; human IgG1, kappa
Kd: 411 pM

B24: hz10B4-8 (antibody, human IgG1, kappa)
heavy: not shown
light: DIQLTQSPSSLSASVGDRVTMTCSASSSVSYMHWYQQKPGKAPKLLIYDTSKLASGVPSRFSGSGSGTDFTLTISSLQPEDFATYYCQQWSSNPLTFGGGTKVEIKRTVAAPSVFIFPPSDEQLKSGTASVVCLLNNFYPREAKVQWKVDNALQSGNSQESVTEQDSKDSTYSLSSTLTLSKADYEKHKVYACEVTHQGLSSPVTKSFNRGEC
notes: hz10B4_VH4 + hz10B4_VL2; human IgG1, kappa
Kd: 211 pM

B25: hz10B4-11 (antibody, human IgG1, kappa, V domains shown)
VH: EVQLVQSGAEVKKPGASVKVSCKASGYTFTEYIMHWVRQAPGQGLEWMGGINPASGGTTYNQKFKGRVTMTRDTSISTAYMELSRLRSEDTAVYYCARKGKDYFDWYFDVWGQGTTVTVSS
VL: DIQLTQSPSSLSASVGDRVTMTCSASSSVSYMHWYQQKPGKAPKLLIYDTSKLASGVPSRFSGSGSGTDFTLTISSLQPEDFATYYCQQWSSQPLTFGGGTKVEIKR
notes: hz10B4_VH3 + hz10B4_VL5; human IgG1, kappa
Kd: 422 pM

B26: hz10B4-14 (antibody, human IgG1, kappa, V domains shown)
VH: B25 VH with A54N, S55Q
VL: B25 VL
notes: hz10B4_VH4 + hz10B4_VL5; human IgG1, kappa
Kd: 523 pM

B27: hz10B4-1 (antibody, human IgG1, kappa)
heavy: not shown
light: B24 light with L4M
notes: hz10B4_VH1 + hz10B4_VL1; human IgG1, kappa
Kd: 827 pM

B31: hz10B4-5 (antibody, human IgG1, kappa)
heavy: not shown
light: B24 light
notes: hz10B4_VH1 + hz10B4_VL2; human IgG1, kappa
Kd: 998 pM

B32: hz10B4-10 (antibody, human IgG1, kappa, V domains shown)
VH: B25 VH
VL: B25 VL with S92A, Q93S
notes: hz10B4_VH3 + hz10B4_VL4; human IgG1, kappa
Kd: 381 pM

B33: hz10B4-13 (antibody, human IgG1, kappa, V domains shown)
VH: B25 VH with A54N, S55Q
VL: B25 VL with S92A, Q93S
notes: hz10B4_VH4 + hz10B4_VL4; human IgG1, kappa
Kd: 351 pM

B35: hz10B4-9 (antibody, human IgG1, kappa, V domains shown)
VH: B25 VH
VL: B25 VL with Q93A
notes: hz10B4_VH3 + hz10B4_VL3; human IgG1, kappa
Kd: 352 pM

B36: hz10B4-4 (antibody, human IgG1, kappa)
heavy: not shown
light: B24 light with L4M
notes: hz10B4_VH4 + hz10B4_VL1; human IgG1, kappa
Kd: 501 pM

B37: hz9B11-3 (antibody, human IgG1, kappa)
heavy: not shown
light: EIVLTQSPDFQSVTPKEKVTITCRASQSINNNLHWYQQKPDQSPKLLIKYASQSISGVPSRFSGSGSGTDFTLTINSLEAEDAATYYCQQSHSWPYTFGQGTKLEIKRTVAAPSVFIFPPSDEQLKSGTASVVCLLNNFYPREAKVQWKVDNALQSGNSQESVTEQDSKDSTYSLSSTLTLSKADYEKHKVYACEVTHQGLSSPVTKSFNRGEC
notes: hz9B11_VH1 + hz9B11_VL2; human IgG1, kappa
Kd: 118 pM

Other lines, results leading:

Kd: 139 pM
B3: hz9B11-10 (antibody, human IgG1, kappa)
heavy: not shown
light: B1 light with Y49K, Y87F
notes: hz9B11_VH2 + hz9B11_VL5; human IgG1, kappa

Kd: 107 pM
B5: hz9B11-9 (antibody, human IgG1, kappa)
heavy: not shown
light: B1 light with Y49K, Y87F
notes: hz9B11_VH1 + hz9B11_VL5; human IgG1, kappa

Kd: 121 pM
B6: hz9B11-5 (antibody, human IgG1, kappa)
heavy: not shown
light: B1 light with Y49K
notes: hz9B11_VH1 + hz9B11_VL3; human IgG1, kappa

Kd: 32.8 pM
B10: hz17A3-17 (antibody, human IgG1, kappa, V domains shown)
VH: B8 VH
VL: B8 VL with N31S, N54S
notes: hz17A3_VH3 + hz17A3_VL7; human IgG1, kappa

Kd: 299 pM
B16: hz17A3-16 (antibody, human IgG1, kappa, V domains shown)
VH: B8 VH with N57S
VL: B8 VL with N54S
notes: hz17A3_VH5 + hz17A3_VL6; human IgG1, kappa

Kd: 172 pM
B20: hz17A3-18 (antibody, human IgG1, kappa, V domains shown)
VH: B8 VH with N52S
VL: B8 VL with N31S, N54S
notes: hz17A3_VH4 + hz17A3_VL7; human IgG1, kappa

Kd: 299 pM
B23: hz17A3-11 (antibody, human IgG1, kappa, V domains shown)
VH: B8 VH
VL: B8 VL with N31S
notes: hz17A3_VH3 + hz17A3_VL5; human IgG1, kappa

Kd: 341 pM
B28: hz10B4-3 (antibody, human IgG1, kappa)
heavy: not shown
light: B24 light with L4M
notes: hz10B4_VH3 + hz10B4_VL1; human IgG1, kappa

Kd: 177 pM
B29: hz10B4-2 (antibody, human IgG1, kappa)
heavy: not shown
light: B24 light with L4M
notes: hz10B4_VH2 + hz10B4_VL1; human IgG1, kappa

Kd: 131 pM
B30: hz10B4-6 (antibody, human IgG1, kappa)
heavy: not shown
light: B24 light
notes: hz10B4_VH2 + hz10B4_VL2; human IgG1, kappa

Kd: 332 pM
B34: hz10B4-12 (antibody, human IgG1, kappa, V domains shown)
VH: B25 VH with A54N, S55Q
VL: B25 VL with Q93A
notes: hz10B4_VH4 + hz10B4_VL3; human IgG1, kappa

Kd: 141 pM
B38: hz9B11-4 (antibody, human IgG1, kappa)
heavy: not shown
light: B37 light
notes: hz9B11_VH2 + hz9B11_VL2; human IgG1, kappa
